Results from US5807824A, “C5A receptor antagonists having substantially no agonist activity” (priority 1995, dated 1998).
Values belong to the molecule of their own block, whether it stands above or below them. Where a SMILES comes first, the peptide text is derived from it.

What was measured:
C5a receptor [1] = target: T1, C5a receptor (Homo sapiens, UniProt P21730); assay: C5a induced Ca++ rise assay in fura-2 loaded neutrophils; format: cell-based; details: for IC50 / EC50: Table 6, Example 10 comparison with decapeptide; for Concentration up to which tested with agonist activity not detected: calcium rise assay
T1 construct: Neutrophils were purified from human peripheral blood; endogenous in cells; host or cells: neutrophils from human peripheral blood
T1 sequence (P21730 1-350): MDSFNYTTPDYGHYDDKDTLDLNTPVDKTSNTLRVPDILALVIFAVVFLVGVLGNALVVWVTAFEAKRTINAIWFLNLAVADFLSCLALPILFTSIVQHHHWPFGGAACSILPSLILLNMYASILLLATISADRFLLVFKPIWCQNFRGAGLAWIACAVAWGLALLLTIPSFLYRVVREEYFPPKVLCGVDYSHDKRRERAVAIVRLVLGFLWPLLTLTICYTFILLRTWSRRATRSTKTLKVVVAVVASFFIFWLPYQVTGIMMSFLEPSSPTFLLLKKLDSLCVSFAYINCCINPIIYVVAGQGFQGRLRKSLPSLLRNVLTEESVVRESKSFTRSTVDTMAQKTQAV
Text: The antagonism of the instant C5a analogues may be quantified as an IC50 in the calcium rise assay disclosed in Seligmann et al., Agents and Actions 21:375-378 (1987), described in detail in Example 7.
See Hugli et al., CRC Crit. Rev. Immunol. 1:321-326 (1981) and PCT WO 92/10205. A quantitative measure of this property may also be obtained using the calcium rise assay disclosed in Seligmann et al., supra, also described in Example 7. EC50 is a measure of agonistic activity.
Recombinant human C5a was dissolved in Hanks buffer containing 0.01% Tween-20, and all stock dilutions of C5a were made in this buffer. The acetoxymethyl ester of fura-2 (fura 2AM, Molecular Probes) was dissolved in DMSO. Neutrophils were purified from human peripheral blood by sedimentation in 6% hetastarch (HESPAN, DuPont, Waukegan, Ill., followed by counter flow elutriation as described in Chapman-Kirkland et al., J. Immunol. Meth. 142:95-104 (1991). Purified cells (2×10^6/ ml) were mixed with 0.2 uM fura- 2AM and incubated for 30 min at 37° C. in HEPES buffered Hanks solution without calcium or magnesium. Fifteen minutes before the assay, the cell suspension was transferred to a curvette containing a stir bar and calcium was added to 1 mM. The cell suspension was incubated with stirring at 37° C. Assays were terminated within 5 h of cell purification and a standard control response was obtained periodically to insure that the cell responses were not changing over the time of the experiment. The amount of fluorescence was determined using an SLM 8000 spectrofluorometer (SLM-Aminco Instruments, Urbana, Ill.). Curvettes were placed in the fluorometer and after obtaining a baseline for 10 sec, the C5a receptor antagonists to be tested for antagonistic properties were added and any change in fluoresence excitation ratio of 340 nm/380 nm (emission of 510 nm) was measured. Forty seconds after analogue addition, a challenge dose of C5a was added to a final concentration of 100 pM and the resulting change in excitation ratio was measured.
IC50 values were used as a measure of antagonist potency. These values are defined as the concentration of C5a analogue needed to reduce the calcium rise response of the 100 pM C5a challenge dose by 50%. EC50 values were used as a measure of agonist potency. […]

C5a receptor [2] = target: T1, C5a receptor; assay: Receptor binding assay: displacement of [125I]Bolton-Hunter labelled C5a from PMNL membranes
Protocol: C5a and C5a receptor antagonists were tested for their affinity for the C5a receptor. […] PMNLs were resuspended in Hanks balanced salt solution, without Ca^++ and Mg^++ and which contained 10 mM HEPES at pH 7.3, 2.5 mM MgCl2, 100 units/ml DNAse I, 0.1 mM PMSF, 10 μg/ml aprotonin and 10 μg/ml leupeptin. They were then equilibrated at 400 psi for 20 min at 4° C. in a nitrogen cavitation bomb. After evacuation into 3 volumes 0.5M KHCO3 containing 25 mM EDTA and the protease inhibitors listed above, the gelatinous material was removed with forceps and the mixture was centrifuged at 400×g for 10 min at 4° C. The resulting supernatant was centrifuged at 50,000×g for 60 min at 4° C. The pellets from the aliquots representing 200×10^6 cells were stored at -70° C. For binding studies, these membranes were resuspended at an equivalent of 20×10^6 cells/ml in 50 mM HEPES at pH 7.3, containing 1 mM CaCl2, 5 mM MgCl2, 0.1 mM PMSF, 0.1% bacitracin and 0.5% BSA.
Nonspecific binding was determined in the presence of 10 nM unlabelled C5a. The binding reaction was initiated by the addition of the PMNL membranes and was continued for 120 min at 4° C. Bound and free radioactivity were separated by vacuum filtration through GF/C glass fiber filters (Whatman), pretreated for 90 min with 0.05% PEI (polyethyleneimine) using a Cell Harvester (Brandel, Gaithersburg, Md.). Filters were washed with 3×5 ml of ice-cold 5 mM Tris buffer at pH 7.4 and counted in a multiwell Gamma counter (Genesys). Data were analyzed using the non-linear regression analysis program, RS/1 (Bolt, Beranek and Newman, Boston) and expressed as IC50 values. The results are set forth below in Table 4 as Ki values using the Cheng-Presoff equation. See Braunwalder et al., supra.

[3] = Table 4, [125I]BH-C5a 4.0 pM, PMNL membranes, Cheng-Prusoff
[4] = Table 6, Example 10 comparison with decapeptide

Molecule: CC[C@H](C)[C@H](N)C(=O)N[C@@H](CO)C(=O)N[C@@H](Cc1ccccc1)C(=O)N[C@@H](CCCCN)C(=O)N[C@@H](CC(=O)O)C(=O)N[C@@H](CCSC)C(=O)N[C@@H](CCC(N)=O)C(=O)N[C@@H](CC(C)C)C(=O)NCC(=O)N[C@@H](CCCNC(=N)N)C(=O)O [Decapeptide, reference compound] (H-ISFKDMQLGR-OH)
- Agonist / antagonist character (C5a receptor [1]; stated in words): significant agonist activity

B2: C5a (1-71, T1M, C275, Q71D) (protein, UniProt P01031 678-751, looked up, variant T1M C27S Q71D)
C5a anaphylatoxin: MLQKKIEEIAAKYKHSVVKKCCYDGASVNNDETCEQRAARISLGPRCIKAFTECCVVASQLRANISHKDMDLGR
modifications: C5a anaphylatoxin
notes: agonist, included for comparison
- Ki (C5a receptor [2]; [3]): 8.5 nM

B5: C5a (1-73, T1M, C27S, G73C) (protein, UniProt P01031 678-751, looked up, variant T1M C27S G73C)
C5a anaphylatoxin: MLQKKIEEIAAKYKHSVVKKCCYDGASVNNDETCEQRAARISLGPRCIKAFTECCVVASQLRANISHKDMQLCR
modifications: C5a anaphylatoxin truncated to residues 1-73
notes: as for B2
- EC50 (C5a receptor [1]): 0.6 nM
- Ki (C5a receptor [2]; [4]): 0.03 nM

B6: C5a (1-71, T1M, C27S, Q71S) (protein, UniProt P01031 678-751, looked up, variant T1M C27S Q71S)
C5a anaphylatoxin: MLQKKIEEIAAKYKHSVVKKCCYDGASVNNDETCEQRAARISLGPRCIKAFTECCVVASQLRANISHKDMSLGR
modifications: C5a anaphylatoxin
notes: as for B2
- Ki (C5a receptor [2]; [3]): 7.5 nM

B9: C5a: human C5a, a 74-amino acid polypeptide; recombinant human C5a used as reference agonist (protein, UniProt P01031 678-751, looked up)
C5a anaphylatoxin: TLQKKIEEIAAKYKHSVVKKCCYDGACVNNDETCEQRAARISLGPRCIKAFTECCVVASQLRANISHKDMQLGR
modifications: C5a anaphylatoxin
- EC50 (C5a receptor [1]): 0.07 nM

B12: C5a (1-68, T1M, C27S, K68C) (protein, UniProt P01031 678-745, looked up, variant T1M C27S K68C)
chain: MLQKKIEEIAAKYKHSVVKKCCYDGASVNNDETCEQRAARISLGPRCIKAFTECCVVASQLRANISHC
modifications: C5a anaphylatoxin
- IC50 (C5a receptor [1]): 84 nM
- Ki (C5a receptor [2]; [4]): 0.06 nM

The remaining lines, values ahead:

- Ki (C5a receptor [2]; [3]): 2.8 nM
B1: 8 Cys: cysteine-adduct of the C5a analogue No. 8 (protein, UniProt P01031 678-751, looked up, variant T1M C27S Q71C)
C5a anaphylatoxin: MLQKKIEEIAAKYKHSVVKKCCYDGASVNNDETCEQRAARISLGPRCIKAFTECCVVASQLRANISHKDMCLGR
modifications: C5a anaphylatoxin cysteine adduct

- IC50 (C5a receptor [1]): 621 nM
- Concentration up to which tested with agonist activity not detected (C5a receptor [1]): > 1.5 µM
- Ki (C5a receptor [2]; [3]): 0.9 nM
- Ki (C5a receptor [2]; [4]): 0.15 nM
B3: C5a (1-72, T1M, C27S, L72C) (protein, UniProt P01031 678-751, looked up, variant T1M C27S L72C)
C5a anaphylatoxin: MLQKKIEEIAAKYKHSVVKKCCYDGASVNNDETCEQRAARISLGPRCIKAFTECCVVASQLRANISHKDMQCGR
modifications: C5a anaphylatoxin truncated to residues 1-72

- Ki (C5a receptor [2]; [3]): 0.035 nM
B4: C5a (1-71, T1M, C275, Q71L) (protein, UniProt P01031 678-751, looked up, variant T1M C27S Q71L)
C5a anaphylatoxin: MLQKKIEEIAAKYKHSVVKKCCYDGASVNNDETCEQRAARISLGPRCIKAFTECCVVASQLRANISHKDMLLGR
modifications: C5a anaphylatoxin
notes: as for B2

- Concentration up to which tested with agonist activity not detected (C5a receptor [1]): > 0.8 µM
- Ki (C5a receptor [2]; [3]): 0.1 nM
B7: C5a (1-71, T1M, C27S, H67F, Q71C) (protein, UniProt P01031 678-751, looked up, variant T1M C27S H67F Q71C)
C5a anaphylatoxin: MLQKKIEEIAAKYKHSVVKKCCYDGASVNNDETCEQRAARISLGPRCIKAFTECCVVASQLRANISFKDMCLGR
modifications: C5a anaphylatoxin truncated to residues 1-71

- Ki (C5a receptor [2]; [3]): 3 nM
B8: C5a (1-71, T1M, C27S) (protein, UniProt P01031 678-751, looked up, variant T1M C27S)
C5a anaphylatoxin: MLQKKIEEIAAKYKHSVVKKCCYDGASVNNDETCEQRAARISLGPRCIKAFTECCVVASQLRANISHKDMQLGR
modifications: C5a anaphylatoxin
notes: as for B2

- Ki (C5a receptor [2]; [3]): 0.15 nM
B10: C5a (1-71, T1M, C275, Q71H) (protein, UniProt P01031 678-751, looked up, variant T1M C27S Q71H)
C5a anaphylatoxin: MLQKKIEEIAAKYKHSVVKKCCYDGASVNNDETCEQRAARISLGPRCIKAFTECCVVASQLRANISHKDMHLGR
modifications: C5a anaphylatoxin
notes: as for B2

- Ki (C5a receptor [2]; [3]): 0.35 nM
B11: C5a (1-71, T1M, C27S, Q71R) (protein, UniProt P01031 678-751, looked up, variant T1M C27S Q71R)
C5a anaphylatoxin: MLQKKIEEIAAKYKHSVVKKCCYDGASVNNDETCEQRAARISLGPRCIKAFTECCVVASQLRANISHKDMRLGR
modifications: C5a anaphylatoxin truncated to residues 1-71
notes: as for B2

- IC50 (C5a receptor [1]): 859 nM
- Concentration up to which tested with agonist activity not detected (C5a receptor [1]): > 1 µM
- Ki (C5a receptor [2]; [3]): 0.4 nM
- Ki (C5a receptor [2]; [4]): 0.35 nM
B13: C5a (1-70, T1M, C275, M7OC) (protein, UniProt P01031 678-747, looked up, variant T1M C27S M70C)
chain: MLQKKIEEIAAKYKHSVVKKCCYDGASVNNDETCEQRAARISLGPRCIKAFTECCVVASQLRANISHKDC
modifications: C5a anaphylatoxin
